“And” between values parts separate entries of the source, which are not always exact repeats. Equal entries are not always repeated.
B1: tubulin α1A/1B C-terminal tail (CTT) peptide, more basic variant EGEGEEEGQQ (peptide)
peptide: EGEGEEEGQQ
notes: Synthetic variant peptide from GenScript; also called α1A/1B more basic
B2: tubulin α1A/1B C-terminal tail (CTT) peptide, tyrosinated isoform (peptide)
peptide: EGEGEEEGEEY
notes: Synthetic peptide from GenScript; also called α1A/1B tyrosinated isoform
B3: tubulin α4 C-terminal tail (CTT) peptide, tyrosinated isoform (peptide)
peptide: EDEDEGEEY
notes: Synthetic peptide from GenScript; also called α4 tyrosinated isoform
B4: tubulin α4 C-terminal tail (CTT) peptide, detyrosinated isoform (peptide)
peptide: EDEDEGEE
notes: Synthetic peptide from GenScript; also called α4 detyrosinated isoform
B5: tubulin α1A/1B C-terminal tail (CTT) peptide, detyrosinated isoform (peptide)
peptide: EGEGEEEGEE
notes: Synthetic peptide from GenScript; also called α1A/1B detyrosinated isoform
B6: tubulin α1A/1B C-terminal tail (CTT) peptide, more basic variant EGEGEEEGQQQ (peptide)
peptide: EGEGEEEGQQQ
notes: as for B1
B7: Human recombinant TUBB3 (other)
chain: MREIVHIQAGQCGNQIGAKFWEVISDEHGIDPSGNYVGDSDLQLERISVYYNEASSHKYVPRAILVDLEPGTMDSVRSGAFGHLFRPDNFIFGQSGAGNNWAKGHYTEGAELVDSVLDVVRKECENCDCLQGFQLTHSLGGGTGSGMGTLLISKVREEYPDRIMNTFSVVPSPKVSDTVVEPYNATLSIHQLVENTDETYCIDNEALYDICFRTLKLATPTYGDLNHLVSATMSGVTTSLRFPGQLNADLRKLAVNMVPFPRLHFFMPGFAPLTARGSQQYRALTVPELTQQMFDAKNMMAACDPRHGRYLTVATVFRGRMSMKEVDEQMLAIQSKNSSYFVEWIPNNVKVAVCDIPPRGLKMSSTFIGNSTAIQELFKRISEQFTAMFRRKAFLHWYTGEGMDEMEFTEAESNMNDLVSEYQQYQDATAEEEGEMYEDDEEESEAQGPK
notes: Bought protein; immobilised by amine coupling in SPR, in solution in the dot blot; also called tubulin β-3; Tubulin β-3
B8: tubulin α1A/1B C-terminal tail (CTT) peptide, more basic variant EGEGEEEGQQQQ (peptide)
peptide: EGEGEEEGQQQQ
notes: as for B1
B9: tubulin α4 C-terminal tail (CTT) peptide, Δ2 isoform (peptide)
peptide: EDEDEGE
notes: Synthetic peptide from GenScript; also called α4 Δ2 isoform

Key:
[1] = biological target: T1, gp120IIIB (HIV, UniProt P04578 33-511); experiment: dot blot: 2 µg peptide spotted, 5 µg gp120IIIB in 20 mL, anti-gp120 antibody
T1 construct: Bought protein
Experimental: Dot blot analysis: CTTs or Helix-A and -B peptides (2 μg each) were spotted on a nitrocellulose membrane and allowed to dry. […] The membranes were washed and then incubated with a mouse anti-gp120 antibody (1:1000; Immunodiagnostics, Inc.) or mouse anti-TUBB3 antibody (1:5000; Covance, NJ) in TBST for 2 hours. Membranes were washed and incubated in goat anti-mouse HP-conjugated secondary antibody (1:20,000; Jackson ImmunoResearch Laboratories, Inc., PA). Visualization of the bands was then accomplished by the addition of PIERCE® SUPERSIGNAL™ West Pico-Stable Peroxidase Solution and Luminol/Enhancer Solution (Pierce Biotechnology, Inc., Rockford, Ill.).
Following incubation with a corresponding HRP-conjugated secondary antibody 1 hour at RT, the immunocomplexes were visualized with chemiluminescence.

[2] = biological target: T1, gp120IIIB; experiment: SPR Biacore T200, TUBB3 amine-coupled to CM5, gp120 3.13-100 nM as analyte, 1:1 model; one of two experiments
[3] = biological target: T2, gp120MN (HIV, UniProt P05877 32-513); experiment: as above
T2 construct: Bought protein; only its gp120 part would apply; also called GP-MN

[4] = biological target: T1, gp120IIIB; experiment: SPR Biacore T200, TUBB3 immobilised, 1:1 model; mean of two experiments
Experimental: (§1) After ligand capture, the surfaces were deactivated by injecting 1 M ethanolamine for 720 sec at 10 μL/min. HBS-P (10 mM HEPES, pH7.4, 150 mM NaCl, 0.05% P-20) with 2 mM MgCl₂ used as the running buffer. Flow cell 1 on each chip was left empty and used for reference surface. […] Kinetic studies were performed by injecting different concentrations of the analytes in triplicate. The chip surface was regenerated by with 10 mM glycine pH 1.5 injected for 30 sec at a flow rate of 100 μL/min. Each sample was injected for 60 sec (contact time) followed by a dissociation time of 300 sec at a flow rate of 100 μL/min. Data was analyzed with BIACORE® T200™ Evaluation Software (version 1) to determine the equilibrium dissociation constant (KD) from a 1:1 binding model.
(§2) Recombinant TUBB3, tubulin dimer, and assembled MTs from bovine brains were immobilized on a BIACORE® CM5 chip by amine coupling. […] The kinetics of interaction was analyzed using a BIACORE® T200™ instrument. BiaEvaluation software was used to calculate binding affinities based on 1:1 binding model.

[5] = biological target: T2, gp120MN; experiment: as above
Experimental: as §1, §2

[6] = biological target: T3, assembled microtubules (containing ~25% of TUBB3) (porcine, UniProt F1S6M7 41-471); experiment: SPR Biacore T200, 60 sec injection of 10 uM over immobilised microtubules, reference-subtracted
T3 construct: also called assembled MTs; MTs

[7] = biological target: B7; experiment: SPR (Biacore T200), recombinant TUBB3 amine-coupled to a CM5 chip, peptide as analyte at 625 nM to 20 µM

Binder | binding result [1] | other results
B1 | no binding | –
EEEEGEDEA (Synthetic peptide from GenScript) [tubulin β2A/2B C-terminal tail (CTT) peptide] | no binding | –
B2 | no binding | –
B3 | no binding | –
B4 | no binding | –
B5 | no binding | –
B6 | no binding | –
B7 | – | Kd [2]: 7.91 nM and 7.05 nM; Kd [3]: 901 nM and 579 nM; Kd [4]: 7.5 nM; Kd [5]: 740 nM
RAKWNNTLKQIASK (Synthetic peptide from GenScript) [Helix-B peptide] | – | response (4-1) RU [6]: 0.2 RU; binding result [7]: no binding (tested: 20 µM)
B8 | no binding | –
B9 | no binding | –

From patent US20150239933A1 (GEORGETOWN UNIVERSITY, published 2015)
